Article doi:10.1101/2022.10.17.512556 (bioRxiv, 2022)
Values joined by “and” are separate entries in the source; they are usually repeats but may differ in a detail not shown here. Equal values may be shown once. Read-outs that look alike come from different tables or passages of the source.

What was measured:
cryo-EM structure [1] = target: the molecule itself; assay: cryo-EM structure
cryo-EM structure [2] = target: the molecule itself; assay: cryo-EM structure; remark: listed apart in the source

B1: S210A DegP (enzyme)
chain: AETSSATTAQQMPSLAPMLEKVMPSVVSINVEGSTTVNTPRMPRNFQQFFGDDSPFCQEGSPFQSSPFCQGGQGGNGGGQQQKFMALGSGVIIDADKGYVVTNNHVVDNATVIKVQLSDGRKFDAKMVGKDPRSDIALIQIQNPKNLTAIKMADSDALRVGDYTVAIGNPFGLGETVTSGIVSALGRSGLNAENYENFIQTDAAINRGNAGGALVNLNGELIGINTAILAPDGGNIGIGFAIPSNMVKNLTSQMVEYGQVKRGELGIMGTELNSELAKAMKVDAQRGAFVSQVLPNSSAAKAGIKAGDVITSLNGKPISSFAALRAQVGTMPVGSKLTLGLLRDGKQVNVNLELQQSSQNQVDSSSIFNGIEGAEMSNKGKDQGVVVNNVKTGTPAAQIGLKKGDVIIGANQQAVKNIAELRKVLDSKPSVLALNIQRGDSTIYLLMQ
stoichiometry N (cryo-EM structure [1]): 18
stoichiometry N (cryo-EM structure [2]): 30 and 60
